Assay results as given in publication PMC3082181 (The Journal of Cell Biology, 2011).
Numbering of substitutions follows the chain as printed.

T1: Flag-Munc18c-Y521F (mouse, UniProt Q60770 1-592, Y521F)
T1 sequence: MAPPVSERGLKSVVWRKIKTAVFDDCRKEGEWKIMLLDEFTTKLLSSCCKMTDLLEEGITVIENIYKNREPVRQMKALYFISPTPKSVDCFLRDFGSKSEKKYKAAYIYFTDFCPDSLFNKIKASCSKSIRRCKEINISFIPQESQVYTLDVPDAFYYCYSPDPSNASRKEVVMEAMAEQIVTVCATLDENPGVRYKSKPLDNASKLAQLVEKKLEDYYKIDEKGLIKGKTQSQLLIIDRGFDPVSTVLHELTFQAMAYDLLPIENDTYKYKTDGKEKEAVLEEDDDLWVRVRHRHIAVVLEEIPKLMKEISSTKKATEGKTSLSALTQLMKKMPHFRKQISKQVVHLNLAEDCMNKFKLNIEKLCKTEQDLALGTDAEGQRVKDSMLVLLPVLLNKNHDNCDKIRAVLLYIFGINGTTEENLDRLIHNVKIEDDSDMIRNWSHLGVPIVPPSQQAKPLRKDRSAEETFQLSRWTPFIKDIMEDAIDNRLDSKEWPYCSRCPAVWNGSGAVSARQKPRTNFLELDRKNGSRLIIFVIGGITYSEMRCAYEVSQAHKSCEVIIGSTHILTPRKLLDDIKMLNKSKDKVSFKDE

T2: Flag-Munc18c-Y219F (mouse, UniProt Q60770 1-592, Y219F)
T2 sequence: T1 sequence with Y219F, F521Y

T3: Munc18c (mouse (endogenous in 3T3-L1 adipocytes …, UniProt Q60770 1-592))
T3 sequence: T1 sequence with F521Y

B1: full-length syntaxin 4 (natural protein)
chain: MRDRTHELRQGDNISDDEDEVRVALVVHSGAARLSSPDDEFFQKVQTIRQTMAKLESKVRELEKQQVTILATPLPEESMKQGLQNLREEIKQLGREVRAQLKAIEPQKEEADENYNSVNTRMKKTQHGVLSQQFVELINKCNSMQSEYREKNVERIRRQLKITNAGMVSDEELEQMLDSGQSEVFVSNILKDTQVTRQALNEISARHSEIQQLERSIRELHEIFTFLATEVEMQGEMINRIEKNILSSADYVERGQEHVKIALENQKKARKKKVMIAICVSVTVLILAVIIGITITVG
B2: insulin receptor (receptor)
chain 1: HLYPGEVCPGMDIRNNLTRLHELENCSVIEGHLQILLMFKTRPEDFRDLSFPKLIMITDYLLLFRVYGLESLKDLFPNLTVIRGSRLFFNYALVIFEMVHLKELGLYNLMNITRGSVRIEKNNELCYLATIDWSRILDSVEDNYIVLNKDDNEECGDVCPGTAKGKTNCPATVINGQFVERCWTHSHCQKVCPTICKSHGCTAEGLCCHKECLGNCSEPDDPTKCVACRNFYLDGQCVETCPPPYYHFQDWRCVNFSFCQDLHFKCRNSRKPGCHQYVIHNNKCIPECPSGYTMNSSNLMCTPCLGPCPKVCQILEGEKTIDSVTSAQELRGCTVINGSLIINIRGGNNLAAELEANLGLIEEISGFLKIRRSYALVSLSFFRKLHLIRGETLEIGNYSFYALDNQNLRQLWDWSKHNLTITQGKLFFHYNPKLCLSEIHKMEEVSGTKGRQERNDIALKTNGDQASCENELLKFSFIRTSFDKILLRWEPYWPPDFRDLLGFMLFYKEAPYQNVTEFDGQDACGSNSWTVVDIDPPQRSNDPKSQTPSHPGWLMRGLKPWTQYAIFVKTLVTFSDERRTYGAKSDIIYVQTDATNPSVPLDPISVSNSSSQIILKWKPPSDPNGNITHYLVYWERQAEDSELFELDYCLKGLKLPSRTWSPPFESDDSQKHNQSEYDDSASECCSCPKTDSQILKELEESSFRKTFEDYLHNVVFVPRPS
chain 2: SLEEVGNVTATTLTLPDFPNVSSTIVPTSQEEHRPFEKVVNKESLVISGLRHFTGYRIELQACNQDSPDERCSVAAYVSARTMPEAKADDIVGPVTHEIFENNVVHLMWQEPKEPNGLIVLYEVSYRRYGDEELHLCVSRKHFALERGCRLRGLSPGNYSVRVRATSLAGNGSWTEPTYFYVTDYLDVPSNIAKIIIGPLIFVFLFSVVIGSIYLFLRKRQPDGPMGPLYASSNPEYLSASDVFPSSVYVPDEWEVPREKITLLRELGQGSFGMVYEGNAKDIIKGEAETRVAVKTVNESASLRERIEFLNEASVMKGFTCHHVVRLLGVVSKGQPTLVVMELMAHGDLKSHLRSLRPDAENNPGRPPPTLQEMIQMTAEIADGMAYLNAKKFVHRDLAARNCMVAHDFTVKIGDFGMTRDIYETDYYRKGGKGLLPVRWMSPESLKDGVFTASSDMWSFGVVLWEITSLAEQPYQGLSNEQVLKFVMDGGYLDPPDNCPERLTDLMRMCWQFNPKMRPTFLEIVNLLKDDLHPSFPEVSFFYSEENKAPESEELEMEFEDMENVPLDRSSHCQREEAGGREGGSSLSIKRTYDEHIPYTHMNGGKKNGRVLTLPRSNPS

How the values were obtained:
Experiment in all cases: co-IP
[1] = target: T1, Flag-Munc18c-Y521F
[2] = target: T2, Flag-Munc18c-Y219F
[3] = target: T3, Munc18c

Row | Binder | ratio syntaxin 4/Flag-Munc18c, insulin-stimulated versus basal = 1 [1] | ratio syntaxin 4/Flag-Munc18c, insulin-stimulated versus basal = 1 [2] | fold change of coprecipitated IR, insulin versus unstimulated [3] [fold]
1 | B1 | 1.6 | 1 | 
2 | B2 |  |  | ~2
